Positions count from the first letter of the chain named.
B1: FBC-39 (antibody, V domains shown)
VH: EVQLVVSGGGLVKPGGSLRLSCAASGLSFLNAWMSWVRQAPGKGLEWVGRIKSNTDGGTTDYAAPVKGRFSISRDDSKNMLFLHMSSLRTEDTAVYYCATDGPYSDDFRSGYAARYRYFGMDVWGQGTTVTVSS
VL: DIQMTQSPSSVSASVGDRVTITCRASQDISTWLAWYQQKPGKAPKLLIYAASSLQSGVPSRFSGSGSGTDFTLTISSLQPEDFATYFCQQANSFPPTFGQGTKLEIK
B2: FBC-39 LTL (antibody, V domains shown)
VH: B1 VH with V6E, S28T, S71T, M80T, F82Y, H84Q, R89K, A99T
VL: B1 VL with F87Y
B3: FBC-39 FTL (antibody, V domains shown)
VH: B1 VH with V6E, L27F, S28T, S71T, M80T, F82Y, H84Q, R89K, A99T
VL: B1 VL with F87Y
B4: FBC-39 FSL (antibody, V domains shown)
VH: B1 VH with V6E, L27F, S71T, M80T, F82Y, H84Q, R89K, A99T
VL: B1 VL with F87Y
B5: FBC-39 LSL (antibody, V domains shown)
VH: B1 VH with V6E, S71T, M80T, F82Y, H84Q, R89K, A99T
VL: B1 VL with F87Y
B6: FBD-56 (antibody, V domains shown)
VH: EVQLVESGGHLVQPGRSLRLSCAASGFTFEDYAMNWVRQAPGKGLEWVSVISWDSGRIGYADSVKGRFTISRDNAKNSSYLQMNSLRPEDTALYYCVRDMLAYYSDNSGKKYNVYGMDVWGQGTTVTVSS
VL: EIVLTQSPATLSLSPGERATLSCRASQSVSTFLAWYQQKPGQAPRLLMYDASNRATGIPARFSGSGSGTDFTLTISSLEPEDFAIYYCQQRSHWPPIFGQGTRLEIK
B7: FBD-94 (antibody, V domains shown)
VH: EVQLVESGGGLVQPGRSLRLSCAVSGFIFEDYAINWVRQAPGKGLEWVSIISWDSGRIGYADSVRGRFTISRDNAKNSSFLQMNSLRPEDTAVYYCVKDMLAYYYDGSGIRYNLYGMDVWGQGTTVTVSS
VL: B6 VL with Q27R, V29I, S30T, M48I, I58V, S76N, E81D, S92D

Target: HA of influenza B virus B/Florida/4/2006 (yamagata) (influenza B virus B/Florida/4/2006)
Test: cell-based or functional assay

Row | Binder | Neutralization (Ave IC50 ug/ml) [µg/mL]
1 | B1 | 0.046
2 | B2 | 0.023
3 | B3 | 0.014
4 | B4 | 0.017
5 | B5 | 0.016
6 | B6 | 0.013
7 | B7 | 0.016
